{"source": "paper PMC8749442", "about": "(iScience, 2021)", "binders": {"B1": {"name": "GroES (co-chaperone of GroEL) (natural protein)", "chain": "MNIRPLHDRVIVKRKEVETKSAGGIVLTGSAAAKSTRGEVLAVGNGRILENGEVKPLDVKVGDIVIFNDGYGVKSEKIDNEEVLIMSESDILAIVEA"}}, "key": {"[1]": {"target": "the molecule itself", "assay": "cryo-EM structure"}, "[2]": {"target": "GroEL (wild-type bacterial chaperonin) (UniProt P0A6F5 1-548)", "sequence (P0A6F5 whole entry)": "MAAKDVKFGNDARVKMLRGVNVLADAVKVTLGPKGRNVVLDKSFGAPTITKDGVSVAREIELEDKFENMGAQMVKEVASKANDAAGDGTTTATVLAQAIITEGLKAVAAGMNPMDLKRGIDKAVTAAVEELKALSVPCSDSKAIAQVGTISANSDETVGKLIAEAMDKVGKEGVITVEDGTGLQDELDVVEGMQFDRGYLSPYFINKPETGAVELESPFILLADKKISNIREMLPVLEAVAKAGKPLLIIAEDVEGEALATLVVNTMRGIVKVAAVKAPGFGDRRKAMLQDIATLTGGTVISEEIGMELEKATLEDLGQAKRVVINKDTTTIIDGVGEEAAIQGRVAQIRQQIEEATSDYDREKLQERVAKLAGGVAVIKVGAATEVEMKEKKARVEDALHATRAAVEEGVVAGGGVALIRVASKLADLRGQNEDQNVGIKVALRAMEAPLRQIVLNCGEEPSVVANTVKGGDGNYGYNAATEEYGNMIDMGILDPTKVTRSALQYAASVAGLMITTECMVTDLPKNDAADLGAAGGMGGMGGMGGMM", "assay": "cryo-EM structure"}}}
{"binder": "B1", "values": [{"measurement": "binding result", "setting": "[1]", "value": "binds"}, {"measurement": "binding result", "setting": "[2]", "value": "binds"}]}
